# Source: the DeepSol protein solubility set
# Experiment: soluble on expression in E. coli; label from the status in PepcDB or PDB records
row,Sequence,soluble on expression in E. coli
1,MSLHDLLMIDGLQYSNWSQDIFQQMQAGGLSAVHATIAYHENARETLSRLGEWNRRFETWPELIRPVRTASDIRLAHEEGRVGIFFGFQNCSPIEDDIALVEVFRQLGVFVMQLTYNNQSLLASGCYEREDNGISRFGRQVIAEMNRVGMLIDMSHSAERSTLEAIELSSRPVIISHANPASFHAAKRNKSDAVLRGIAESGGLLGFSTYPFHLKGASDCSLESFCDMVARTADLMGVEHIGIGTDLCQAQPLSVLEWMRNGRWSKDKDYGEGSRDNANWPAPLQWFRDSRDLRNIAQGLRARGFAEHDVGNIMGLNWLRLLETATTAQAEGHHHHHH,soluble
2,MLLALKGIRKVYRMGEVAFSALKGVDLEVEEGEMLAIMGPSGSGKSTLLHILGLLDRPTEGEYVLMDRPTSRLAEDERAFLRNRFLGFVFQAFFLLPRLSALENVEVPLAYAGVPPGTRRRRALELLERVGLLEKANNLPNQLSGGQRQRVAIARALALNPPLLLADEPTGALDTRTGEEILALFQELNREGTTVILVTHEPHVAEKTNRIVRVLDGEIVADERRHHG,soluble
3,MSEGPKKAGVLGSPIAHSRSPQLHLAAYRALGLHDWTYERIECGAAELPVVVGGFGPEWVGVSVTMPGKFAALRFADERTARADLVGSANTLVRTPHGWRADNTDIDGVAGALGAAAGHALVLGSGGTAPAAVVGLAELGVTDITVVARNSDKAARLVDLGTRVGVATRFCAFDSGGLADAVAAAEVLVSTIPAEVAAGYAGTLAAIPVLLDAIYDPWPTPLAAAVGSAGGRVISGLQMLLHQAFAQVEQFTGLPAPREAMTCALAALD,not soluble
4,QQVRQSPQSLTVWEGETAILNCSYEDSTFNYFPWYQQFPGEGPALLISIRSVSDKKEDGRFTIFFNKREKKLSLHITDSQPGDSATYFCAARYQGGRALIFGTGTTVSVSP,soluble
5,ISEFGSTMARAIYDFFSTPFGNRGLATNRTQLSSLLSSSNSPWQRFLSSMTPLTAPGIVSTPEAPYPGSLMYQESMLHSATVPGVLGSRDAWRTFNVFGLSWTDEGLSGLVAAQDPPPAAPYQPASAQWSDLLNYPRWANRRRELQSKYPLLLRSTLLSAMRAGPVLYVETWPNMISGRLADWFMSQYGNNFVDMCARLTQSCSNMPVEPDGNYDQQMRALISLWLLSYIGVVNQTNTISGFYFSSKTRGQALDSWTLFYTTNTNRVQITQRHFAYVCARSPDWNVDKSWIAAANLTAIVMACRQPPVFANQGVINQAQNRPGFSMNGGTPVHELNLLTTAQECIRQWVMAGLVSAAKGQALTQEANDFSNLIQADLGQIKAQDDALYNQQPGYARRIKPFVNGDWTPGMTAQALAVLATFTA,soluble
6,MKAFDQVNHSLLLHKLHDFGINPLFCNWFHDFLSSRTFSVKVNNHIDPNIHPIPSGVPQGSVSGPFLFLIFINSLLLSLPPTISCSAFADDLKVYSHSPPLIQTTIDLITAWSENNKLPLAHSKTCLLHLGKKNPKTVYKINNLPISPSNVARDLGILTDSKLTFKTHIKKIVFLALLRCKQLLKSFKSLCPEFCCNLFKTYILPLIEYGSAVYSPKPSSSLSTLLEKPLRWYSQKVLQKCNISYSSYNDRLKSLNLHSIRHRRLKSKLILLYKFCCGTSFLPQKETYFKLSTSSRRPMRIICHNPSSNNFFSDTISFWNAITNNCDTFLSPIHFENLVDNSITRL,not soluble
7,MYVALWYKHGKPIHGRSWNNGGVVECSFPYKEAELTTKQQLEGQIQVLQYVGDHNNQGFWYEWIKYKDRIEKIDDKHQLVRCGDSFPIFWKRKEGNLLGYVDNKTEEGWFSFNGKVIKQVGPQLNDMYIITRNCVGGPPYCECENCPKLPPPPPIPPPGPPPPRVMHDEWIDIREGDPWPTRKLVKALDKSLDTLPGVSADQYVALWYMQGEPVMGRVWNEGGKVAANFSWFNNEYCKNVGSIQLLVRLGPHVVGYEYGWIPFPEAANFDAGKIWKPVHVNNHKGDISVGVVNLPGGKQILAKVDVRNESYGYGYQGKEHSARGPACASSVTVLCRKALPGYQLDG,not soluble
8,MKAAVVEQFKEPLKIKEVEKPTISYGEVLVRIKACGVCHTDLHAAHGDWPVKPKLPLIPGHEGVGIVEEVGPGVTHLKVGDRVGIPWLYSACGHCDYCLSGQETLCEHQKNAGYSVDGGYAEYCRAAADYVVKIPDNLSFEEAAPIFCAGVTTYKALKVTGAKPGEWVAIYGIGGLGHVAVQYAKAMGLNVVAVDIGDEKLELAKELGADLVVNPLKEDAAKFMKEKVGGVHAAVVTAVSKPAFQSAYNSIRRGGACVLVGLPPEEMPIPIFDTVLNGIKIIGSIVGTRKDLQEALQFAAEGKVKTIIEVQPLEKINEVFDRMLKGQINGRVVLTLEDK,soluble
9,MRKILITGGAGFIGSALVRYIINETSDAVVVVDKLTYAGNLMSLAPVAQSERFAFEKVDICDRAELARVFTEHQPDCVMHLAAESHVDRSIDGPAAFIETNIVGTYTLLEAARAYWNALTEDKKSAFRFHHISTDEVYGDLHSTDDFFTETTPYAPSSPYSASKASSDHLVRAWLRTYGLPTLITNCSNNYGPYHFPEKLIPLMILNALAGKSLPVYGNGQQIRDWLYVEDHARALYCVATTGKVGETYNIGGHNERKNLDVVETICELLEELAPNKPHGVAHYRDLITFVADRPGHDLRYAIDASKIARELGCVPQETFESGMRKTVQWYLANESWWKQVQDGSYQGERLGLKG,soluble
10,MAHHHHHHMGKPGKKAGKGLLAPTNPNRRTDPNKTSLRDQRTIKRLKMYKSKIKRDEKGNIIKGSVLKASDRIEQQMARIAPDRRWFGNTRTIGQEALQKFREEMGTKYKDPYSVIIKQSKLPLSLLEEPKNTDGSIRKEMEWDKTFGDKANRKRVRLNAVDMSTLATEANVKGDYYDCNKKEKDRDLMKGVHKDRDDKTRNGILMTKGQSNRIWCELYKVIDSSDVVLYVVDARDPMGTRSAFLEDFMRREKKYKHFVLVLNKCDLVPLWATARWLQILSKDYPTIAFHASVNHPFGKGNVISLLRQFARLHNVTHRGSKRTKTPISVGVIGYPNVGKSSLINTLRRKSVCKVAPIPGETKVWQYVALTRSIFLIDCPGVVYDRESNNDIQAVLKGVVRVERLGNADKTDVVDTVLKIVKQRDIVATYGVREWRDVVDFLEKLAKLRGKLVAGGEPDVEAAARMLLYDWQRGRLPWFNAPPFESNKHHRDAMEQPQEKHMKLIEHYSTFNVVDDTINRGDEKQDEGGDGDEETANNAADEDQLDSGSEAEKDEEAVKPLKPSKTDRLSATKADTQLATVATYMREQEEKQRKAQRQQKRKAARKGQEDVEAFSADADRESDDALWAQFLAAAKV,soluble
11,MNLLQHIAQSRQQLRKSELKVADHVLNDPASVMHSSMAELAHGVGVSEPTIVRFCRAIGCSGFQDLKLKLAQSLAAGASFGQFSIHESDSVADFSLKIFDTTLHSLMEVREHLDTHALERAIAAIAHAQRVEFYGFGASGAVASDAQHKFFRLLLSAAAYSDPHMQAMSAVTLKPSDVAICISQSGRSKDLLITANLVREAGATLITLCPSQTPLADLATVNLAIDVHEDTDIYTPLTSRIAHLVVIDVLAMGVAMARGPDLVNHLKSVKRSLRSLRLSPKVMKNQEERGEPS,not soluble
12,MIMHIPKSTYYHKWFIGATLVVPVLPLAAQTSPNLVFIMADQYRGDALGCLGKEPVKTPCLDHLASEGVLFTNAVSSYPVSSPARAMLMTGMYPLHNKVTGNCNSQTAPYGVELPQEARCWSDVLKDMNYRTGYIGKWHLDSPYKPYVDTYNNRGKVAWNEWCPPERRHGFEYWTAYGTYDYHLKPMYWDTTAPRDSFYYVNQWGPAYEADKAIEYIQTQKENKQPFALVVSMNPPHTGYELVPDKYKALYKDIDVEALCAHRPDIPAKGTEMGNYFRNNIRNYYACITGVDEQVGRIIETLKSNGLFENTIIVFTSDHGICMGAHNNAGKDIFYEEAMRIPMIISWPAKIKPRKDDHLMIAFADLYPSLLSLMGFRKEIPETVQTFDLSRHILGKSKKEVVQPYYYVQFDNHATGYRGLRTSTHTFAVHATNGKIDETVLFDRTKDPYQMDNIAGQSPRLVRQFNKQLKAWLLHTNDSFAHYLETVTK,not soluble
13,MVKLDDKNKKFKGKKKVKNVLEKKAKGLKLNKVDRKRIVKIEEKAALKSKVDKAVKDELERLKKSSSTSVFDNDGTRDSLCSESSFGSQPAPKKKSKKVLFSGELEHVKVFDKRVQDLQIKPSEASPGRGILRSPLDKKVKKLAKVKTVKVAQEEEEEHSAPPKKKVKVNAEKAVASEPADDENLESVDEQAGGDESHIDIPTLKRKRVAIQVTKSVKEQLLNMPRKERKAFLKELKLKRKPEGARAQKCKELWEKIRMGKTPKAEKDTAVHELYGLVKGHAAKLIYAHDTSRVIECLVATEREGIINNLFNELTPEIVRMSKNVYSKFFVKKMLKNGTKEQRDIIINAFRGHAPTLLRIKHAAEVLEYAYNDFANAHQRYNIITEFYGKEFILFREDNIRSLTEILAEKPEKKVVILKHLDEVIGAVNEKETLRLSILHKLMLDFFDNCDEEKKINLLDSLKDKIPEFIHTPDGAKLAIKLIWFAPVKERKLIVKNFKDLSVKAAMEHYGHRVLLALFDTVDDTVLLNKVIVSELANEMKKLIEDDWGEKVIHYLVHPRDGRGIDKREITFLAEGDSNPHSKKTQKDRYGQLYAGITENLYPYLAANFEELVFEANKSKFVAACLETTSSFDLFDRQVPAEARKSCNQAIVELAKKDFVPMDQEGFHIIEHQSGNFILMAVMRCDAALQEDERLSVALAEGLTSKQLGSWVTCNRGCHVLLKMLQVGGPKVIEKLKASISRKHLDGYNSKGANLLKAQLDGNVKK,soluble
14,VVGHIVNDLQRRKVGDQEVVKFRVASNSRRRTSDGGWEPGNSLFITVNCWGRLVTGVGAALGKGAPVIVVGHVYTSEYEDRDGIRRSSLEMRATSVGPDLSRVIVRIEKPAYTGPSAGDLPAATGTGAAGAADAPASAADSVSDVVVDDAITGHNPLPISA,not soluble
15,MGSDKIHHHHHHMKNYKFLVPILLVALLGGSVYKTYSDREKINKQYDNDITQARQNRKLEVYVNAEEDYLDALKLKDSAKLRAELGEMYIEAEDLRTAAKWGESLISEYPKEQVGYEFLIQVYLEQKDYASCFRIKDEADGLKISSKKIEEIISDIKYEYYLEGEYAQVEEFSNGYAAVKKEKKWGYLNSKGHRVIESEFEEAGAFAKEVAPVIDDKGRAFYIDNEGNRKIVIDFVDNIEKLGYMSMDNIFPVNDGKKWSLYSLDSKKKIAGDYDEVSAMGNGVAAVKSDDKWSLIDTKGKKVTKDKYDSVVMDSKGIVCRNDRVFAKQNGYYYLFDSKGNKVVKTKFDDARLFADDGYAAVCVDGKWGFVDKDGKQVIKPQFNEAHSFSNGLAAVRFSNGWGYVDEKGNKVIETGFDDACDFNEQGKTFVKTDDKWQVLTLYLYNHES,not soluble
16,MSLGIKAVIFDLDGVIVSTDEYHYRAWKAMADEEGIYFDKRINERLRGVGRMESLEIILEKAKKTYNTKEKIQMTERKNFIYRELLNELTPKHILKGVMNVLETLRAKNIKIAIGSSSKNTSIILEKIKLDKYFDAVADGREIKKSKPNPEVFLLAAKKLKVSPEECLIVEDADAGVEAAIAGGMKVLAVGYASNNIKANYKFKDLSCVDIKEVICKEGHHHHHH,soluble
17,MGSDKIHHHHHHMSSATHYILTWQCPDNTGVLAKVSQSLFSHGAFITETSQYSDPYSETFFSRIAFDDRNLTVSSSEFVKALNELAKPLAMQYQLRKRADVPNVLIAVSKDDHCLVSLLTKWRSGALPINIVGVISNHQYCQALSEWHNVPFYHLPVNAETKLEQEAQITDLMEELNIDLLVLARYMQILSDGLCQQLQGKAINIHHSFLPSFKGARPYHQAHARGVKVIGATAHYVTANLDEGPIIAQEVKPINHAFTIEQMVHMGHDLEATALSHAVRIHAEQRVCINGDKTVILA,not soluble
18,MFVQTTNQSNTLSNFILTCAFPAGAPVTNYPPSLSHTSSPGSSVYEASTKTEAVHKLESYQLQASRDPCTIPDELREEMKRMKRQEGAFKTALCLSHKRGKTCIYGEQCKFAHGVHELRCQQAKKNHRNYKTVLCDKFTTTGYCKYGIRCQFIHRSMDATNVTRPIDTADFKLDVQSDLSRAFALDSSSFLPNWHCSALLN,not soluble
